{"source": "paper PMC3673817", "target": "FLAG-tagged full length EEA1 (Early endosomal autoantigen 1) (human) (UniProt Q15075)", "sequence (Q15075 whole entry)": "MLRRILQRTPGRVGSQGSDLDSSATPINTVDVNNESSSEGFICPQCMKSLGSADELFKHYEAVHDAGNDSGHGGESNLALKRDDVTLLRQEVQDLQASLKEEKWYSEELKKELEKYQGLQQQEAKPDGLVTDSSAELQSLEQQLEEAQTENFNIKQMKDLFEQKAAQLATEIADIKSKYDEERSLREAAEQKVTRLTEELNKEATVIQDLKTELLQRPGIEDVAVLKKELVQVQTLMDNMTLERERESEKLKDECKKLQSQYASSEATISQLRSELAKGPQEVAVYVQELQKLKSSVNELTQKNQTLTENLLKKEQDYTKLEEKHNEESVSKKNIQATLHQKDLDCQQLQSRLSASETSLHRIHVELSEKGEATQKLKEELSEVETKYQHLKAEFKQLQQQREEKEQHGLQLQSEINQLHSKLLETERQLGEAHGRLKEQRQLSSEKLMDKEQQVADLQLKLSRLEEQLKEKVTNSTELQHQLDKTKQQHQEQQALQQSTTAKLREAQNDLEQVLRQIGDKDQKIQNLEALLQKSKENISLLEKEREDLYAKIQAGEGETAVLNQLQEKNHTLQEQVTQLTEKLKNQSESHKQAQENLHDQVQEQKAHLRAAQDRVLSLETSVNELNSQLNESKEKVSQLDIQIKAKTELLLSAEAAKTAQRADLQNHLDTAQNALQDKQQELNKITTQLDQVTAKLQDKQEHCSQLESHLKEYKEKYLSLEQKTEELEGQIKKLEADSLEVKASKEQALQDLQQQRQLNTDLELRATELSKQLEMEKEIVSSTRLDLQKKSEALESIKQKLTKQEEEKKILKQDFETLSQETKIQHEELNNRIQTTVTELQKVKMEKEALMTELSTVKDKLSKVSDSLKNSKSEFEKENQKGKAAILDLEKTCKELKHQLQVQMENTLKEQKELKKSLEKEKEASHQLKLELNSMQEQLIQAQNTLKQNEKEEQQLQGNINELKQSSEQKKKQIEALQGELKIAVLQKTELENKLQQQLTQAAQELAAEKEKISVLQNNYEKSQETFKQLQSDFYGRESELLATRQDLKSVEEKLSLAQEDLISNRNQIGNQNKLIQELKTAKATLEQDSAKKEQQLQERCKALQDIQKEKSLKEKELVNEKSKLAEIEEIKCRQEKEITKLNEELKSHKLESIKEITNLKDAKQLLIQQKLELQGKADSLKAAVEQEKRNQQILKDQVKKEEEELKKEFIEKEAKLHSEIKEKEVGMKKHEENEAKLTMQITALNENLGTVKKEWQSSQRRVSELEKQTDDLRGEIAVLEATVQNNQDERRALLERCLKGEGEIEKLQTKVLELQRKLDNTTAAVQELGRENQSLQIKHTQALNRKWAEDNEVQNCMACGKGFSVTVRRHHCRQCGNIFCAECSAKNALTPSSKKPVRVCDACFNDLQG", "test": "SPR; EEA1-FLAG amine-coupled to a CM5 chip (~2,000 RU), Biacore 2000, 25°C; E2 injected at 2.5 to 160 μM, 20 μL/min, in 10 mM Hepes pH 7.4, 150 mM NaCl, 3 mM EDTA, 0.005% surfactant P20; response plotted against the E2 concentration"}
{"substance": "Ube2A (HR6a) (from UniProt P49459 1-152) (enzyme; other documents disagree on this pair)", "values": [{"measurement": "Kd", "result": 9.7, "unit": "µM"}]}
